Reference: patent US20250312499A1, “KISSPEPTIN RECEPTOR (KISS1R) TARGETED THERAPEUTICS AND USES THEREOF” (priority 2024, published 2025)
Numbered stars: 1 amine (or outer) side, 2 acyl side, 3 side chain; on linkers, the order of the positions; unused ones are H or OH. Square brackets hold non-standard residues; d marks the D form. Ends that are not written are not given here. * marks the point of attachment. X2 = 4‑amino‑1‑((3-fluoro-4-methylbenzyl)glycyl)piperidine‑4‑carboxylic acid, Cc1ccc(CN(CC(=O)N2CCC(N[*:1])(C(=O)[*:2])CC2)[*:3])cc1F; X6 = 3‑(2-(2-(3-(p-tolyl)propanamido)ethoxy)ethoxy)propanoyl, Cc1ccc(CCC(=O)NCCOCCOCCC(=O)*)cc1; DOTA = O=C(O)CN1CCN(CC(=O)O)CCN(CC(=O)*)CCN(CC(=O)O)CC1; Api(1-amidino) = N=C(N)N1CCC(N)(C(=O)O)CC1; HO(CH2CH2O)2CH2CH2CO = O=C(CCOCCOCCO)*; Phe(3-F) = N[C@@H](Cc1cccc(F)c1)C(=O)O; d2Nal = N[C@H](Cc1ccc2ccccc2c1)C(=O)O; d4Pal = N[C@H](Cc1ccncc1)C(=O)O; Cha = N[C@@H](CC1CCCCC1)C(=O)O; Octanoyl = CCCCCCCC(=O)*; Ahx = NCCCCCC(=O)O; azaGly = NNC(=O)O; Sar = CNCC(=O)O

Biological target: human kisspeptin receptor (KISS1R) (human), Q969F8
Test: radioligand competition, hKISS1R membranes; legend: A is <10 nM

human kisspeptin receptor (KISS1R) (human), Q969F8, sequence (Q969F8 whole entry): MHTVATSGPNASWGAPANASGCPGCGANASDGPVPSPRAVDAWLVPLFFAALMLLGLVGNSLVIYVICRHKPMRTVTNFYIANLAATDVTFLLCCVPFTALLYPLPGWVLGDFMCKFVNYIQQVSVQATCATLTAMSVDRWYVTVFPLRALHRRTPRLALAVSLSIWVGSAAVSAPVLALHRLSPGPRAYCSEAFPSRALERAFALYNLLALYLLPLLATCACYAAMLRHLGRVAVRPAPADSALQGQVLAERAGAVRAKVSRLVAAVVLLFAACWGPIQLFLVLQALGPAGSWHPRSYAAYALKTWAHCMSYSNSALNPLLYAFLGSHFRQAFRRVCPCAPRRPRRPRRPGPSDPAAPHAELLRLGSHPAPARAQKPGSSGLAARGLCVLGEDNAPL

B1: Compound 23 (peptide)
peptide: {DOTA}-[dY][d4Pal]NTF[azaGly]L[X2]W-NH2
SMILES: Cc1ccc(CNCC(=O)N2CCC(NC(=O)[C@H](CC(C)C)NC(=O)NNC(=O)[C@H](Cc3ccccc3)NC(=O)[C@@H](NC(=O)[C@H](CC(N)=O)NC(=O)[C@@H](Cc3ccncc3)NC(=O)[C@@H](Cc3ccc(O)cc3)NC(=O)CN3CCN(CC(=O)O)CCN(CC(=O)O)CCN(CC(=O)O)CC3)[C@@H](C)O)(C(=O)N[C@@H](Cc3c[nH]c4ccccc34)C(N)=O)CC2)cc1F
**Q.** With B1 as the binder, how does the Ki read?
**A.** < 10 nM

**Q.** How did the Ki turn out when X6-[dY]K(DOTA)NT[Cha][azaGly]L[4‑amino‑1‑carbamimidoylpiperidine‑4‑carboxylic acid(Sarcosine)]W-NH2 [Compound 387] was run?
**A.** < 10 nM

**Q.** [N‑(3-fluoro-4-methylbenzyl)glycine][dY]K(DOTA)NTF[azaGly]L[4‑amino‑1‑carbamimidoylpiperidine‑4‑carboxylic acid(Sarcosine)][dW]-NH2 [Compound 360] was tested. Which Ki did it give?
**A.** < 10 nM

B2: Compound 17 (peptide)
peptide: {DOTA}-[Sar][Sar]F[azaGly]L[X2]W-NH2
SMILES: Cc1ccc(CNCC(=O)N2CCC(NC(=O)[C@H](CC(C)C)NC(=O)NNC(=O)[C@H](Cc3ccccc3)NC(=O)CN(C)C(=O)CN(C)C(=O)CN3CCN(CC(=O)O)CCN(CC(=O)O)CCN(CC(=O)O)CC3)(C(=O)N[C@@H](Cc3c[nH]c4ccccc34)C(N)=O)CC2)cc1F
**Q.** With B2 as the binder, how does the Ki read?
**A.** < 10 nM

B3: Compound 379 (peptide)
peptide: {HO(CH2CH2O)2CH2CH2CO}-[dY]K(DOTA)NTF[azaGly]L[X2]W-NH2
SMILES: Cc1ccc(CNCC(=O)N2CCC(NC(=O)[C@H](CC(C)C)NC(=O)NNC(=O)[C@H](Cc3ccccc3)NC(=O)[C@@H](NC(=O)[C@H](CC(N)=O)NC(=O)[C@H](CCCCNC(=O)CN3CCN(CC(=O)O)CCN(CC(=O)O)CCN(CC(=O)O)CC3)NC(=O)[C@@H](Cc3ccc(O)cc3)NC(=O)CCOCCOCCO)[C@@H](C)O)(C(=O)N[C@@H](Cc3c[nH]c4ccccc34)C(N)=O)CC2)cc1F
**Q.** With B3 as the binder, how does the Ki read?
**A.** < 10 nM

**Q.** Which Ki does the source give for X6-[dY][dK](DOTA)NT[Cha][azaGly]L[4‑amino‑1‑carbamimidoylpiperidine‑4‑carboxylic acid(Sarcosine)][dW]-NH2 [Compound 358] here?
**A.** < 10 nM

**Q.** For Octanoyl-[dY][dK](DOTA)NTF[azaGly]L[4‑amino‑1‑carbamimidoylpiperidine‑4‑carboxylic acid(Sarcosine)][dW]-NH2 [Compound 353], which Ki is on record?
**A.** < 10 nM

B4: Compound 383 (peptide)
peptide: {DOTA-Ahx}-[dY][dW]NTF[azaGly]L[X2][dW]-NH2
SMILES: Cc1ccc(CNCC(=O)N2CCC(NC(=O)[C@H](CC(C)C)NC(=O)NNC(=O)[C@H](Cc3ccccc3)NC(=O)[C@@H](NC(=O)[C@H](CC(N)=O)NC(=O)[C@@H](Cc3c[nH]c4ccccc34)NC(=O)[C@@H](Cc3ccc(O)cc3)NC(=O)CCCCCNC(=O)CN3CCN(CC(=O)O)CCN(CC(=O)O)CCN(CC(=O)O)CC3)[C@@H](C)O)(C(=O)N[C@H](Cc3c[nH]c4ccccc34)C(N)=O)CC2)cc1F
**Q.** How did the Ki turn out when B4 was run?
**A.** < 10 nM

B5: Compound 380 (peptide)
peptide: Ac-[dY]K(DOTA)NTF[azaGly]L[X2]W-NH2
SMILES: CC(=O)N[C@H](Cc1ccc(O)cc1)C(=O)N[C@@H](CCCCNC(=O)CN1CCN(CC(=O)O)CCN(CC(=O)O)CCN(CC(=O)O)CC1)C(=O)N[C@@H](CC(N)=O)C(=O)N[C@H](C(=O)N[C@@H](Cc1ccccc1)C(=O)NNC(=O)N[C@@H](CC(C)C)C(=O)NC1(C(=O)N[C@@H](Cc2c[nH]c3ccccc23)C(N)=O)CCN(C(=O)CNCc2ccc(C)c(F)c2)CC1)[C@@H](C)O
**Q.** B5 was tested. Which Ki did it give?
**A.** < 10 nM

**Q.** For {DOTA-2‑(4-aminopiperidin-1-yl)acetic acid}-[dY]ENT[Phe(3-F)][azaGly]L[X2]W-NH2 [Compound 24], which Ki is on record?
**A.** < 10 nM

**Q.** Which Ki does the source give for {DOTA-NH‑PEG2‑propanoyl}-[dY][dW]NTF[azaGly]L[X2]W-NH2 [Compound 382] here?
**A.** < 10 nM

B6: Compound 381 (peptide)
peptide: Octanoyl-[dY]K(DOTA)NTF[azaGly]L[X2]W-NH2
SMILES: CCCCCCCC(=O)N[C@H](Cc1ccc(O)cc1)C(=O)N[C@@H](CCCCNC(=O)CN1CCN(CC(=O)O)CCN(CC(=O)O)CCN(CC(=O)O)CC1)C(=O)N[C@@H](CC(N)=O)C(=O)N[C@H](C(=O)N[C@@H](Cc1ccccc1)C(=O)NNC(=O)N[C@@H](CC(C)C)C(=O)NC1(C(=O)N[C@@H](Cc2c[nH]c3ccccc23)C(N)=O)CCN(C(=O)CNCc2ccc(C)c(F)c2)CC1)[C@@H](C)O
**Q.** Which Ki does the source give for B6 here?
**A.** < 10 nM

B7: Compound 338 (peptide)
peptide: X6-[dY][dK](DOTA)NTF[azaGly]L[Api(1-amidino)]W-NH2
SMILES: Cc1ccc(CCC(=O)NCCOCCOCCC(=O)N[C@H](Cc2ccc(O)cc2)C(=O)N[C@H](CCCCNC(=O)CN2CCN(CC(=O)O)CCN(CC(=O)O)CCN(CC(=O)O)CC2)C(=O)N[C@@H](CC(N)=O)C(=O)N[C@H](C(=O)N[C@@H](Cc2ccccc2)C(=O)NNC(=O)N[C@@H](CC(C)C)C(=O)NC2(C(=O)N[C@@H](Cc3c[nH]c4ccccc34)C(N)=O)CCN(C(=N)N)CC2)[C@@H](C)O)cc1
**Q.** Which Ki does the source give for B7 here?
**A.** < 10 nM

B8: Compound 20 (peptide)
peptide: {DOTA-Ahx}-[dY]PNTF[azaGly]L[X2]W-NH2
SMILES: Cc1ccc(CNCC(=O)N2CCC(NC(=O)[C@H](CC(C)C)NC(=O)NNC(=O)[C@H](Cc3ccccc3)NC(=O)[C@@H](NC(=O)[C@H](CC(N)=O)NC(=O)[C@@H]3CCCN3C(=O)[C@@H](Cc3ccc(O)cc3)NC(=O)CCCCCNC(=O)CN3CCN(CC(=O)O)CCN(CC(=O)O)CCN(CC(=O)O)CC3)[C@@H](C)O)(C(=O)N[C@@H](Cc3c[nH]c4ccccc34)C(N)=O)CC2)cc1F
**Q.** With B8 as the binder, how does the Ki read?
**A.** < 10 nM

B9: Compound 22 (peptide)
peptide: {DOTA-Ahx}-FF[azaGly]L[X2]W-NH2
modifications: not fully specified; numbers in words are those of the source; also: places azaglycine at site 3
**Q.** B9 was tested. Which Ki did it give?
**A.** < 10 nM

**Q.** {DOTA-NH‑PEG2‑propanoyl}-[dY][d4Pal]NTF[azaGly]L[X2]W-NH2 [Compound 368] was tested. Which Ki did it give?
**A.** < 10 nM

**Q.** Which Ki does the source give for {1‑(3-fluoro-4-methylphenyl)‑4‑oxo‑8,11‑dioxa‑2,5‑diazatetradecan‑14‑oyl}-[dY]K(DOTA)NTF[azaGly]L[4‑amino‑1‑carbamimidoylpiperidine‑4‑carboxylic acid(Sarcosine)][dW]-NH2 [Compound 359] here?
**A.** < 10 nM

**Q.** Octanoyl-[dY][dK](DOTA)NTF[azaGly]L[4‑amino‑1‑carbamimidoylpiperidine‑4‑carboxylic acid(Sarcosine)]W-NH2 [Compound 354] was tested. Which Ki did it give?
**A.** < 10 nM

**Q.** With [dY]K(DOTA)NTF[azaGly]L[4‑amino‑1‑carbamimidoylpiperidine‑4‑carboxylic acid(Sarcosine)]W-NH2 (not fully specified (N-terminus)) [Compound 384] as the binder, how does the Ki read?
**A.** < 10 nM

**Q.** X6-[dY]K(DOTA)NT[Cha][azaGly]L[4‑amino‑1‑carbamimidoylpiperidine‑4‑carboxylic acid(Sarcosine)][dW]-NH2 [Compound 356] was tested. Which Ki did it give?
**A.** < 10 nM

**Q.** With {DOTA-4‑(aminomethyl)cyclohexanecarboxylic acid}-F[azaGly]L[X2]W-NH2 [Compound 25] as the binder, how does the Ki read?
**A.** < 10 nM

**Q.** How did the Ki turn out when Octanoyl-[dY][dK](DOTA)NT[Cha][azaGly]L[4‑amino‑1‑carbamimidoylpiperidine‑4‑carboxylic acid(Sarcosine)][dW]-NH2 [Compound 355] was run?
**A.** < 10 nM

B10: Compound 366 (peptide)
peptide: {DOTA-Ahx}-[dY][dW]NTF[azaGly]L[X2]Y-NH2
SMILES: Cc1ccc(CNCC(=O)N2CCC(NC(=O)[C@H](CC(C)C)NC(=O)NNC(=O)[C@H](Cc3ccccc3)NC(=O)[C@@H](NC(=O)[C@H](CC(N)=O)NC(=O)[C@@H](Cc3c[nH]c4ccccc34)NC(=O)[C@@H](Cc3ccc(O)cc3)NC(=O)CCCCCNC(=O)CN3CCN(CC(=O)O)CCN(CC(=O)O)CCN(CC(=O)O)CC3)[C@@H](C)O)(C(=O)N[C@@H](Cc3ccc(O)cc3)C(N)=O)CC2)cc1F
**Q.** For B10, which Ki is on record?
**A.** < 10 nM

**Q.** X6-[dY][dK](DOTA)NT[Cha][azaGly]L[4‑amino‑1‑carbamimidoylpiperidine‑4‑carboxylic acid(Sarcosine)]W-NH2 [Compound 388] was tested. Which Ki did it give?
**A.** < 10 nM

**Q.** For X6-[dY]K(DOTA)NT[Cha][azaGly]L[4‑amino‑1‑carbamimidoylpiperidine‑4‑carboxylic acid(Sarcosine)]W-NH2 [Compound 357], which Ki is on record?
**A.** < 10 nM

B11: Compound 365 (peptide)
peptide: {DOTA}-G[dY][d2Nal]NTF[azaGly]L[X2]W-NH2
SMILES: Cc1ccc(CNCC(=O)N2CCC(NC(=O)[C@H](CC(C)C)NC(=O)NNC(=O)[C@H](Cc3ccccc3)NC(=O)[C@@H](NC(=O)[C@H](CC(N)=O)NC(=O)[C@@H](Cc3ccc4ccccc4c3)NC(=O)[C@@H](Cc3ccc(O)cc3)NC(=O)CNC(=O)CN3CCN(CC(=O)O)CCN(CC(=O)O)CCN(CC(=O)O)CC3)[C@@H](C)O)(C(=O)N[C@@H](Cc3c[nH]c4ccccc34)C(N)=O)CC2)cc1F
**Q.** Which Ki does the source give for B11 here?
**A.** < 10 nM
